Test results taken from paper PMC10368638, “Differential CaKAN3-CaHSF8 associations underlie distinct immune and heat responses under high temperature and high humidity conditions”.

Biological target: CaKAN3-GST (Capsicum annuum? (pepper), UniProt A0A2G2Z1N1 1-250)
Assay: EMSA; EMSA: 20 uL; 5x binding buffer printed as 1 M Tris-HCl pH 7.5, 5 M NaCl, 1 M KCl, 1 M MgCl2, 0.5 M EDTA pH 8.0, 10 mg/mL BSA (apparently stock concentrations)
Conditions: protein: recombinant; tags: GST (pDEST-15); label: Cy5; blunt

Sequence of CaKAN3-GST (A0A2G2Z1N1 entry or part of it): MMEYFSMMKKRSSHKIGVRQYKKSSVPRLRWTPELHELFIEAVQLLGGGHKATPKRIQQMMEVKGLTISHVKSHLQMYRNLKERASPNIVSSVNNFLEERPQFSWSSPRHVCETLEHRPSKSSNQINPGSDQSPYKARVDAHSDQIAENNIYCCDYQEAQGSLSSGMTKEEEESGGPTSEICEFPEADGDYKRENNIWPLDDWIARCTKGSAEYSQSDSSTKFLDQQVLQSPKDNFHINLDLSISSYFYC

B1: 3x AACAAm probe (3xAAAAA) (dsDNA)
DNA 1: AAAAAAAAAAAAAAA
DNA 2: TTTTTTTTTTTTTTT
binding result: no binding

B2: 3x AACAA probe (dsDNA)
DNA 1: AACAAAACAAAACAA
DNA 2: TTGTTTTGTTTTGTT
binding result: binds
